# Source: patent US20160298109A1
# Columns and labels:
# GP120 (HIV-1 JRFL) = assay: SPR; conditions: chains peptide; modification not given
# [1] = target: gp120 of HIV-1 BaL (HIV-1 BaL); assay: cell-based or functional assay
# [2] = target: HIV-1 JRFL gp120 protein (HIV-1 JRFL); assay: peptide blocking ELISA: coated gp120 pre-incubated with GP3 (125 ng), then recombinant CCR5-GST, anti-GST HRP; competitor CCR5
binder,measurement,setting,value
LWCRRLNLLGGGGGGSGGSGK (modifications not checked) [GP16],Kd,GP120 (HIV-1 JRFL),42.7 µM
same,"inhibition of HIV-1 BaL infection (p24+ CD4 T cells), peptide without streptavidin, 50 µM",[1],< 1%
same,"inhibition of HIV-1 BaL infection (p24+ CD4 T cells), peptide without streptavidin, 100 µM",[1],< 1%
same,"inhibition of HIV-1 BaL infection (p24+ CD4 T cells), peptide without streptavidin, 250 µM",[1],50%
same,"viral inhibition, peptide conjugated with streptavidin, 50 µM",[1],62.6%
RRRNVPLILGGGGGGSGGSGK [GP2],Kd,GP120 (HIV-1 JRFL),76.1 µM
SYSFCPRRQGGGGGGSGGSGK (modifications not checked) [GP3],Kd,GP120 (HIV-1 JRFL),39.1 µM
same,"inhibition of HIV-1 BaL infection (p24+ CD4 T cells), peptide without streptavidin, 100 µM",[1],34.5%
same,"inhibition of HIV-1 BaL infection (p24+ CD4 T cells), peptide without streptavidin, 250 µM",[1],54.7%
same,reduction in absorbance (CCR5 binding to gp120),[2],65.8%
LLALSAYMVGGGGGGSGGSGK [GP11],Kd,GP120 (HIV-1 JRFL),48.3 µM
